# ± gives the uncertainty stated by the source.
# Test: self-splicing fitness, log relative to wild type (ln ratio); higher = more splicing; Tetrahymena group I intron in knt gene, E. coli kanamycin selection, DiMSum; sequences stand for … in CUCUCU…GGAGGGAAAAGUUAUCAGGCAUGCACCUGGUAGCUAGUCUUUAAACCAAUAGAUUGCAUCGGUUUAAAAGGCAAGACCGUCAAAUUGCGGGAAAGGGGUCAACAGCCGUUCAGUACCAAGUCUCAGGGGAAACUUUGAGAUGGCCUUGCAAAGGGUAUGGUAAUAAGCUGACGGACAUGGUCCUAACCACGCAGCCAAGUCCUAAGUCAACAGAUCUUCUGUUGAUAUGGAUGCAGUUCACAGACUAAAUGUCGGUCGGGGAAGAUGUAUUCUUCUCAUAAGAUAUAGUCGGACCUCUCCUUAAUGGGAGCUAGCGGAUGAAGUGAUGCAACACUGGAGCCGCUGGGAACUAAUUUGUAUGCGAAAGUAUAUUGAUUAGUUUUGGAGUACUCGUGGUCG
# Outline: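 Colonies from six replicate transformations of E. coli BL21(DE3) were pooled and amplicon-sequenced on an Illumina HiSeq 2500. The library placed an intron with all eight P1ex-region nucleotides randomised inside the knt kanamycin-resistance gene on pET-22b(+), and cells grew overnight at 37°C or 30°C on LB agar with or without 25 μg/mL kanamycin (plus 100 μg/mL carbenicillin, 50 μM IPTG, 0.2% rhamnose). Fitness is the DiMSum error-weighted combination of wild-type-normalised replicate fold changes, kanamycin versus none.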
Sequence,self-splicing fitness (ln) (30 °C),self-splicing fitness (ln) (37 °C)
UCUCAGCAAUAUUACGAAAA,-1.84 ± 0.26,-2.59 ± 0.26
GCCAAGCAAUAUUACGAAGC,-2.7 ± 0.12,-2.51 ± 0.17
GCUGAGCAAUAUUACGAGCG,-0.822 ± 0.23,-0.795 ± 0.21
GAGUAGCAAUAUUACGCGGA,-2.61 ± 0.17,-2.06 ± 0.17
GAAAAGCAAUAUUACGUAUC,-3.9 ± 0.15,-1.48 ± 0.1
ACCCAGCAAUAUUACGGGAA,-0.235 ± 0.044,-0.102 ± 0.055
GGCUAGCAAUAUUACGUGAC,-1.84 ± 0.14,-1.02 ± 0.16
CGGCAGCAAUAUUACGGACU,-2.26 ± 0.17,-1.34 ± 0.2
UUCAAGCAAUAUUACGGAAU,,-2.57 ± 0.23
UGUGAGCAAUAUUACGGGGG,-3.23 ± 0.26,-2.35 ± 0.23
GCGUAGCAAUAUUACGAGUC,-2.81 ± 0.22,-2.17 ± 0.23
CAUAAGCAAUAUUACGGACU,-3.64 ± 0.18,-2.97 ± 0.23
GUGGAGCAAUAUUACGUCUC,-3.56 ± 0.15,-2.77 ± 0.16
UUCAAGCAAUAUUACGUAGA,-1.5 ± 0.094,-0.928 ± 0.14
UGUGAGCAAUAUUACGUCUU,-2.9 ± 0.29,-2.27 ± 0.3
UUUGAGCAAUAUUACGAAAA,-2.31 ± 0.28,-1.21 ± 0.24
CAAUAGCAAUAUUACGGUUG,-2.6 ± 0.12,-1.67 ± 0.12
AACCAGCAAUAUUACGCCGA,-0.252 ± 0.11,-0.169 ± 0.11
CCGGAGCAAUAUUACGCGCC,-1.89 ± 0.32,

Sequence,self-splicing fitness (ln) (30 °C),self-splicing fitness (ln) (37 °C)
GCUGAGCAAUAUUACGGUCC,-2.99 ± 0.28,-0.889 ± 0.26
UUCCAGCAAUAUUACGAAUU,-3.98 ± 0.18,-2.05 ± 0.14
GAUCAGCAAUAUUACGUUCA,-0.939 ± 0.15,-0.942 ± 0.18
CAAUAGCAAUAUUACGCUGA,-3.11 ± 0.22,-1.85 ± 0.16
CAAGAGCAAUAUUACGAGGU,-4.09 ± 0.24,-2.71 ± 0.23
CCACAGCAAUAUUACGAGUU,-2.76 ± 0.09,-2.76 ± 0.12
CAUCAGCAAUAUUACGUUUU,-2.67 ± 0.1,-1.8 ± 0.11
UUAUAGCAAUAUUACGAGUA,-1.68 ± 0.38,-1.09 ± 0.33
CGCAAGCAAUAUUACGAGAU,-3.04 ± 0.38,-1.59 ± 0.26
AGCAAGCAAUAUUACGGCGC,-0.695 ± 0.095,0.164 ± 0.16
AACAAGCAAUAUUACGCUUU,-3.18 ± 0.15,-2.77 ± 0.18
UGGCAGCAAUAUUACGUGGU,-2.84 ± 0.15,-2.99 ± 0.23
AGAAAGCAAUAUUACGAUAG,-3.4 ± 0.38,-1.02 ± 0.16
UCAUAGCAAUAUUACGCGUA,-1.44 ± 0.09,-0.884 ± 0.08
GAUUAGCAAUAUUACGCGUA,-1.01 ± 0.1,-0.855 ± 0.091
GCAUAGCAAUAUUACGCGAC,-2.79 ± 0.16,0.0921 ± 0.13
UAUAAGCAAUAUUACGAAAU,-3.45 ± 0.22,-3.24 ± 0.33
CUCGAGCAAUAUUACGGUCG,-3.59 ± 0.28,-2.38 ± 0.34
AGAGAGCAAUAUUACGAAUG,-2.07 ± 0.22,-3.27 ± 0.47

# — the supplement of paper PMC7877785
